Sequences and labels used below:
T1: GABPα-GST (ETS domain);CREB1 B-ZIP domain (mouse?;mouse, UniProt Q00422;Q01147 320-400;269-327, |)
T1 sequence 1: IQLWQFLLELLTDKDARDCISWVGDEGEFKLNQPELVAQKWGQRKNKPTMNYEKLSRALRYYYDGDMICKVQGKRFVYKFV
T1 sequence 2: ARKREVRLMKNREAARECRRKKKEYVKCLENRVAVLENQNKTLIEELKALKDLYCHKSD

T2: GABPα-GST (ETS domain) (UniProt Q00422 320-400)
T2 sequence: T1 sequence 1

B1: GC SNP GCGGAAA(T) (dsDNA)
DNA 1: GTCCTCAAGAGCGGAAATGACGTCACGACTCAGGTGGGACACACTTTAACACATGGAGAG
DNA 2: CTCTCCATGTGTTAAAGTGTGTCCCACCTGAGTCGTGACGTCATTTCCGCTCTTGAGGAC
B2: GC SNP GGGGAAGT (dsDNA)
DNA 1: B1 DNA 1 with C12G, A17G
DNA 2: B1 DNA 2 with T44C, G49C
B3: GC SNP GCGGAACT (dsDNA)
DNA 1: B1 DNA 1 with A17C
DNA 2: B1 DNA 2 with T44G
B4: CC SNP TCGGAAGT (dsDNA)
DNA 1: B1 DNA 1 with G11T, A17G
DNA 2: B1 DNA 2 with T44C, C50A
B5: CC SNP CGGGAAGT (dsDNA)
DNA 1: B1 DNA 1 with G11C, C12G, A17G
DNA 2: B1 DNA 2 with T44C, G49C, C50G
B6: CC SNP CCGGAAA(T) (dsDNA)
DNA 1: B1 DNA 1 with G11C
DNA 2: B1 DNA 2 with C50G
B7: CC SNP CCGGACGT (dsDNA)
DNA 1: B1 DNA 1 with G11C, A16C, A17G
DNA 2: B1 DNA 2 with T44C, T45G, C50G
B8: CC SNP CCGGAACT (dsDNA)
DNA 1: B1 DNA 1 with G11C, A17C
DNA 2: B1 DNA 2 with T44G, C50G
B9: ETS-CRE GC motif probe (dsDNA)
DNA 1: B1 DNA 1 with A17G
DNA 2: B1 DNA 2 with T44C

Residue numbers refer to the chain shown, from its start.

The target in one data set is T1, GABPα-GST (ETS domain);CREB1 B-ZIP …. Kind of data set: PBM; 8 ng:8 ng plasmid; PBM as in Badis et al. 2009 (buffer, salt, pH, temperature not stated); IVT proteins from 2.5-100 ng plasmid; Alexa Fluor 647 anti-GST detection. The settings on record: protein: ivt;ivt; tags: GST;none; copies: 1;2; blunt.
As for B1, the binding signal amounted to 16 fold increase by CREB1.
Still for that read-out and setting: to B2 belongs around 8 fold increase by CREB1; to B3, 8 fold increase by CREB1.

Another data set shares this target. The description is as above. The settings on record: protein: ivt;ivt; tags: GST;none; copies: 1;2; blunt. The source holds these as a separate data set.
On to B4, for which the binding signal was < 20 fold increase by CREB1 (up to).
For B5, the binding signal was around 16 fold increase by CREB1.
For the molecule B6, the binding signal stood at 2 fold increase by CREB1.
Still for that read-out and setting: under B7 stands < 20 fold increase by CREB1 (up to; abstract up to 23, most enhanced SNP); under B8, 20 fold increase by CREB1.

For another data set, the target named is T2, GABPα-GST (ETS domain). Kind of data set: PBM; GABPα-GST alone; PBM as in Badis et al. 2009 (buffer, salt, pH, temperature not stated); IVT proteins from 2.5-100 ng plasmid; Alexa Fluor 647 anti-GST detection. The following applies: protein: ivt; tags: GST; blunt.
On to B9, for which the binding signal was 4 fold weaker than N1.

The record behind these values is publication PMC4555227, “GABPα Binding to Overlapping ETS and CRE DNA Motifs Is Enhanced by CREB1: Custom DNA Microarrays”.
